Reference: patent publication US20210214417A1 (KAHR MEDICAL, published 2021)

Target: T1, recombinant human His-tagged CD47 protein (ACRO Biosystem, cat # CD7-H5227) (human, UniProt Q08722 19-139)
T1 construct: also called Recombinant human CD47; not shown: His tag
Experiment: competition ELISA: recombinant human CD47 on the plate, fusion protein added first, then biotinylated SIRPα as the blocked ligand, streptavidin-HRP and TMB, 450 nm; EC50 calculated over 0 to 0.7 ug/ml
Experimental: SIRPα-4-1BBL fusion protein, or a positive control anti CD47 antibody were added to the plate. Following wash biotinylated recombinant human SIRPα was added followed by streptavidin HRP and TMB substrate. Interaction of SIRPα with CD47 was measured by absorbance at 450 nm.
Methods—ELISA plates were coated overnight with recombinant human CD47. The plates were washed and incubated for 1 hour with different concentrations of the produced SIRPα-4-BBL fusion proteins or a positive control anti CD47 antibody. Following, a biotinylated SIRPα was added; and following 1 hour incubation the plates were washed and blotted with Streptavidin-HRP and TMB substrate according to a standard ELISA protocol (FIG. 13A). Plates were analyzed using a Plate reader (Thermo Scientific, Multiscan FC) at 450 nm, with reference at 620 nm.

T1 sequence (Q08722 19-139 limits assumed): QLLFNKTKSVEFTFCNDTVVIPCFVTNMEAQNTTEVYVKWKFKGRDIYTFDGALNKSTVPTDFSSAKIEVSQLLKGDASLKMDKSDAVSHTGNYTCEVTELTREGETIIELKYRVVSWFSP

EC50: 0.103 mg/L
B1: C-terminal his-tagged DSP107_V3.1 (SEQ ID NO: 17) (other)
chain: EEELQVIQPDKSVLVAAGETATLRCTATSLIPVGPIQWFRGAGPGRELIYNQKEGHFPRVTTVSDLTKRNNMDFSIRIGNITPADAGTYYCVKFRKGSPDDVEFKSGAGTELSVRAGSGARASPGSAASPRLREGPELSPDDPAGLLDLRQGMFAQLVAQNVLLIDGPLSWYSDPGLAGVSLTGGLSYKEDTKELVVAKAGVYYVFFQLELRRVVAGEGSGSVSLALHLQPLRSAAGAAALALTVDLPPASSEARNSAFGFQGRLLHLSAGQRLGVHLHTEARARHAWQLTQGATVLGLFRVTPEIPAGLPSPRSEHHHHHH
notes: also called (CH)-V3.1; DSP107_var3.1 with C-terminal His tag
